Laboratory results published in a protein production outcome set (Wang et al. 2014).

Test: label from the status in PepcDB records

For “MLRVIVESASNIPKTKFGKPDPIVSVIFKDEKKKTKKVDNELNPVWNEILEFDLRGIPLDFSSSLGIIVKDFETIGQNKLIGTATVALKDLTGDQSRSLPYKLISLLNEKGQDTGATIDLVIGYDPP”, the protein production was “not failed”.
For “MLRYLALSEAGIAKLPRPQSRCYHSEKGVWGYKPIAQREFQVAEDVRASRNSQANVYRFVEAFRQHGHKLAAVNPISIRTSQQELQELSPAFYGLQTQEPVRTDGLLSGPQVAHNVAQLEQLLKDIYCGRSTSAEFSYVEDIEEREWLARNFETLDQQQLGKSERCEIAELLIKSQAWDNFMALKFPTVKRYGGEGAESMLAFFWQLLRDSVQANIEHVVLAMPHRGRTPLQAALLNMRPAKVFRKLSGASEFSEDIEAMSDVISHFHVSEQLKILGKKLSFSMVRNPSHLEAANPVAMGKTRSKQQARGEGAFGDGSQPFGEHVLNVILHGDAAFAGQGINQECLNMAYVPHFEVGGSLHLIVNNQVGFTTPGDRGRSTAYTSDLAKSIQAPVFHVNGDDPEALARVTSLAFRYQREFRKDIFIDLNCFRRWGHNELDDPTFTNPLVYKIVHQRESVPDLYAQQLAKEQVLSESKAKEMRDEYMKYLGEELALAPAYQPPPSYFEKQWTNFQLAPSKELTYWDTGLDYSLLHYIGQQSVTFPEDFNIHPHLLKTHVNARLKKLENGVKIDWSTAEALAIGSLMYQGHNVRISGEDVGRGTFSHRHAMLVDQQTNEMFIPLNSMEGGNGGKLELAHSILSEEAVLGFEYGMAIDNPNNLIIWEAQFGDFANGAQIIIDTFIVSGETKWMESNALVMLLPHGYDGAASEHSSCRIERFLQLCDSKETSADGDSVNVHIVNPTTPAQYYHVLRRQLARNFRKPLVVVAPKTLLRLPAATSTHEDFQPGTLFHNVLGDTIAKPEQVRKVILCSGKHYYTLAEEREKRQAYDTAILRLESLCPFPIQELQAQLAQYGNVQSFVWSQEEHRNMGAWTFVRPRFENLIGQQLHYCGRCEAPTPATGIGKVHKREVDEIVAAPFEL”, the protein production was “failed”.
In the case of “MLSALIWGPIFGAILIAIIPNPDHDCYSRKIALGIMVAMAGLSVLLAGQFNISDPQMQFVEYYPWLPSLGLNYHLGVDGLSLPLLLLNSALVVIAIFSTNTEIERPRFYYALLLLLSGGVAGAFLAQDLLLFFLFFELEIIPLYFLIAIWGGQRRGYAAMKFLLYTALSGFLVLVSFLGWFWLTKAPNFDYNPSLADALPVKTQMLLLLPLLLGLGIKIPIFPFHTWLPDAHVEASTPVSVLLAGVLLKLGTYGLLRFGLGLYLEAWVEFAPYLATLAAISALYGASCAIAQKDMKKVVAYSSIAHMGYILLAAAAATRLSVTAASAQMVSHGIISALLFLLVGVVYKKTGSRDVDKLQGLLTPERGLPITGSLMILGVMASAGIPGMVGFIAEFLVFRGSFPIFPTQTLLCLIGSGLTAVYFLLMINRVFFGRLTMELSHLPKVRWQEQIPAIALAVVIIALGIQPHWLTQWSEPQTAVLLTGHPDLVSVPAPPRIEIEVKELGEV”, the protein production is reported as “failed”.
With “MLSATSLKIIFAVSIFIVILIAGWYPFKKRLKDDKHIDFPIGETLATGVFLGAALLHMLPESNTLFKEMGYNYPFAFIITGVVFLIFLWFEHLGKELYHHHDAEHPAFAILAWAMLSVHSLMLGAALGFTQYNSMIIMLFLAIITHKWAESLAIAIQLNKSSMSTRKSMVFFFFFSLMTPLGIYFGWYFGHGVETNSLFDPILIAASAGTFLYLGTLHGLERCVMVERCCNLSDFSFVIIGFLLMASVAIYV” the protein production was “failed”.
With “MLSGKKTILVFSMLFATFSSHADNFPKLNQALPSGIDARAIAPVFDFDTDGCLPSAGVSRSGVQNGGLKPSGNITGGCRWSNFLDSSNTLHRYACVNSAGSRYCGSFYALYFLKDQILNGVNSGHRHDWEHVAIWTKNGVVTHGSYSAHGKLTTKEASSIDKQDGHLKFSYHKDGPLTHAFRFSKTNEQAENPYGKFVTPDLISWYLMFGDGINNQELRNLLNAFDYGSASIPLKDGNFLTNLNNGRPAGYPEFTDASITVSK” the protein production was “failed”.
With “MLSHMDGGTAGARVREVGWLAATLTALLLALLLEHYVIHEQMILPWIAVSPEVPPWMLGAQVVPEIIVCFLFGWRLRGLGWIVIYGAAAAALRQSFYALLTRIGASGHPETLFGPPSEFARTAPLVAVMYFMAFGLASMGAREPGPLPGARSRP” the protein production was “failed”.
With “MLSIIIPVYNEKGNILELTSRIKSALKNNEYEIVFVDDSTDETPKIIESLALKYNNIRLKHRKGKKGLSSAVIDGFKLARGDVLSVMDGDLQHPPEMLESMLFQMKKDTDIVICSRFVLGGKEEGLNIFRKFASFIARLIGKIFLKPLRKISDPTAGFFMLKRKVIKNRDLRAIGWKILIEILVMGDYKRVVELPYSFKRRKHEKSKFTISVQGQYLKQIVSLFIRSKKYNIKLEHHHHHH” the protein production was “not failed”.
For “MLSIIVPSYNRKAEVPALLESLTQQTSSNFEVIIVDDCSKERVVVEQSYSFPVTVIRNETNQGAAESRNVGARTSKGDWLLFLDDDDCFMPEKCEKVLQVIEQNPNINFIYHPAKCEMVNEGFTYVTQPIEPQEISTERILLANKIGGMPMIAIKKEMFLKIGGLSTALRSLEDYDFLLKLLQEPSFTPYKINEPLTYCTFHTKRSSVSTDTTNTQKAIDYIREHYVKTVEQARNFDINASYILAYPHIMNLSRKAAKYYFDIFKKTKSIKQFIITLVILISPKLAINLKRLGK”, the protein production was “failed”.
For “MLSIMTFREFMKENGYEVKTKFWEDFSLAERFGLSAIQDTFNRAFKEWKEDYEFLTELVLVLNHKIWQYHEKRPEFAELYNTLEEQTDQYAMENLKDEELSYFFDVTDLEHHHHHH”, the protein production was “not failed”.
In the case of “MLSKIRPKVKQPLERIGKTLASLGITPNQLTIIGFLITLLASYEFYLQNQILAGIILAVGAFLDALDGALARATGKVSKFGGFLDSTIDRLSDASILFGIALGGLVRWDVTFLTLIGSYMVSYSRCRAELAGSGTLAIGIAERGERIIIIFIASLFNAVKIGVYLVAILSWITFIQRVYEAKKRLEMG”, the protein production is reported as “failed”.
In the case of “MLSLAYGMVALIGYSVSFDKTTFRLLRGESNLFYTLAKWENNKLHVELPENIDKQSPTMTLIYDENGQLLWAQRDVPWLMKMIQPDWLKSNGFHEIEADVNDTSLLLSGDHSIQQQLQEVREDDDDAEMTHSVAVNVYPATSRMPKLTIVVVDTIPVELKSSYMVWSWFIYVLSANLLLVIPLLWVAAWWSLRPIEALAKEVRELEEHNRELLNPATTRELTSLVRNLNRLLKSERERYDKYRTTLTDLTHSLKTPLAVLQSTLRSLRSEKMSVSDAEPVMLEQISRISQQIGYYLHRASMHGGTLLSRELHPVAPLLDNLTSALNKVYQRKGVNISLDISPEISFVGEQNDFVEVMGNVLDNACKYCLEFVEISARQTDEHLYIVVEDDGPGIPLSKREVIFDRGQRVDTLRPGQGVGLAVAREITKQYEGKIVAGESMLGGARMEVIFGRQHSTPKDE”, the protein production is reported as “failed”.
In the case of “MLSLKSEVLARHLPLFNGKSILLFGNVRDRFADQIRSISSHVAIFSHYFDYARHYNDVEFGLDCTTPANLGVFYWTKNKQECHYQLLQWLSQTAIGQQMLIIGENRAGVRSVEKLLSPFGQIAKIDSARRCGLYHFELQTIPQFDCQKFWKSYRLADLTVLSLPAAFSSTELDAGSQLLLSSFTNQDRLTGNVLDLGCGAGVIGAYLKQRFPAISLTMSDIHSMAIHSAQATLAKNKLTGTVIASDVFSHINDRFDLIVSNPPFHDDIDTAYHTVESLIMQAKNHLNYGGELRIVANAFLPYPDLLDKAFGSHQVVTKSNKFKVYSARV”, the protein production is reported as “failed”.
For “MLSLPPCRLAARRYRPLRQQNRGSSAVILYNAPSFFDCRFDCLANHRQRRWPRAGHPDRDDVMHTLEQLRAGKLCGARHLKLAENLTEFPPEIFSLKETLEVLDLTGNQLSRLPDGLAEFSKLRIIFCSENRFTELPEVLGRCPALTMVGFKANKIVTVPAASLPAGLRWLILTDNAVEQLPDELGQCGALQKLMLSGNRLRELPVTLANCQRLELVRIAANRLEALPHWLVRLPRLAWLAYAGNPFSDKQEQRLGQCASVADIPWDSLKVGELLGQGASGVIHRAELATPAGPRAVAVKCFKGAVTSDGLPRCELAVSLAAGRHPHLVGVEGRVGDHPSGIPALVMALIDPDFINLAGPPSLDSCTRDIYQADARFTPAALLAMVQGVASAALHLHGRGILHGDLYAHNMLHSLQEEGRLLLGDFGAASCYERTDGELAGLLERLEVRAFGCLLEELLARCAPCDDRLDALHALVDDCLAEVVAARPDFAEIAARLAAVAPVICAEPVLL”, the protein production was “failed”.
For “MLSNGKCRNNKNQVNGSLSPKMFYMRINDQIVTKYHKILTKKIREVVGTLQQPWESRRIKQAPQQPQETTSATITCDRSHTNYDLCSINGSCNLDLKTGTLTLMDPTSAPLVEKIRPYPKKADNWIMPRIRELTLTSGPLGLPRSCDITHDLPAIVFSAGGYTGSIYHDLMDGFIPLFITANSVYPDRDFIPVVVNAKEWWMPKYIDILGTFSKHKPILLLDKESVATTHCFTSAIVGLITHWPMTIDPTQIPNSKSLVDFHNLLEKAFTTNISTPKTHKPRLMLVSRYGNIGRVILNEQEIKEMLEDVGFEVIIFRPSKTTNLKEAYKLIKSSHGMVGVHGAALTHLLFLRPGSIFVQVVPLGLGWASKPCYESPAKTMKLEYLEYKVNVEESSLIEKYNRDDLVLKDPIAYRGMDWNATKMKVYLKEQDVSLDVNRFRKHMNEAYKKAKIFMDING”, the protein production was “failed”.
In the case of “MLSNILPLSIGAIFGTTARWLLNLAVPASLSPATGNLFANWTGALLIGIFAETVSHPQWKLLLITGFFGSLTTLSGFSLETVTLLQSNRPASALANIFLHTAGSLLLTWLGLKIGTAVK”, the protein production is reported as “failed”.
With “MLSPCCHGQSMKTKITGKTISRIVPAEKVYRIHDTLQPGLSIRVLPSGHASYMVTWARNKAATLGRVGVITLEQARTDASRYLADAHAIGEPVAITEKRTGAAMPTLDHFLTHTFEPWAAEHHRDAKNGNRAIRHSFEALLSIPLSSIDTKRVEQIRTAWLRAGLAPSTANRNITRLRGVLSRALEWGVLQEHPLKVRKLKVDDRSRVRYLSIEEETALREALEARSNEMRDARDSANKWRLERHKEPLADLRAVRYADHLEPLVVLSINTGVRRGEAFNLTWADVDLKNKLITVEGDTSKSGQTRHVPLNREALDTLTKWKEQRGGNGFVFPGQHGKRLDNVKKSWSGLLKLAKVERFRWHDLRHTFASKLVMAGVPLNTVRELLGHTDIKMTLRYAHLAPGTKAAAVELI” the protein production was “failed”.
With “MLSVFVVNLRSNSAPFSFSRLLMHTTIVNERSLRTCNFPITLQDIRTLKELYRLKAETRDLRKPIVRNIMKQRVVGKGCLESLKNALYSLETIYIDDYTGQRLLRIDGMKQIEVDLTYEIRELQKDIYYLEYGEDRFIEYLAKFIPGFTDYVTEGVEMLRGKSFNAFITDRDGTTNNYCGRYRSSIQPIYNSVFLSRFAKNCCRYPMIVTSAPLKDFGILNVSINPEHIFVYAGSKGREFIDIDGQFHSFPIEPGKQELIRLLNERMQLLLLDPSFEKFNFIGSALQMKFGQTTIARQDITRSVNEAESAAFLEKIKGIVRDIDPEGKNFRIEDTGLDIEIILTIDVDPKTGMIRDFDKGDGLEFICRKMNIDHTGEPVLVCGDTSSDIPMLKKAMEMYDDVWAIFVTRDEKLMQRVREICPKSYMVPYPDILLTILGLLSL” the protein production was “failed”.
In the case of “MLSYYGRLSSEVYDIDKPIDHSFRDVEFYIDRLNLCRGHILEPATGTGRVLVPLLEKGFKVDGFDSSKDMLNICRDNCRKKGLNPKLFEAKMESFIQDTRYDAIIVPAGTFLLLHQRADSIRALQNFHKHLCSGGRLIIDILMQTDFSTGTVSTRTWVCSNGDLITLESKVVEVDYINQYTVSHNRYEKWREGVLIQTELERFPLRWYGLEEFKLILESTGFKDIVISSDYKFGQYPSNVKDVITFEAVAIN”, the protein production is reported as “failed”.
In the case of “MLTAPPKEAARPTLMPRAQSYKDLTHLPAPTGKIFVSVYNIQDETGQFKPYPASNFSTAVPQSATAMLVTALKDSRWFIPLERQGLQNLLNERKIIRAAQENGTVAINNRIPLQSLTAANIMVEGSIIGYESNVKSGGVGARYFGIGADTQYQLDQIAVNLRVVNVSTGEILSSVNTSKTILSYEVQAGVFRFIDYQRLLEGEVGYTSNEPVMLCLMSAIETGVIFLINDGIDRGLWDLQNKAERQNDILVKYRHMSVPPESLEHHHHHH”, the protein production is reported as “failed”.
